This assay addresses p300 (UniProt Q09472 1-2414). Put plainly: ELISA.

Chain of p300 (Q09472 whole entry): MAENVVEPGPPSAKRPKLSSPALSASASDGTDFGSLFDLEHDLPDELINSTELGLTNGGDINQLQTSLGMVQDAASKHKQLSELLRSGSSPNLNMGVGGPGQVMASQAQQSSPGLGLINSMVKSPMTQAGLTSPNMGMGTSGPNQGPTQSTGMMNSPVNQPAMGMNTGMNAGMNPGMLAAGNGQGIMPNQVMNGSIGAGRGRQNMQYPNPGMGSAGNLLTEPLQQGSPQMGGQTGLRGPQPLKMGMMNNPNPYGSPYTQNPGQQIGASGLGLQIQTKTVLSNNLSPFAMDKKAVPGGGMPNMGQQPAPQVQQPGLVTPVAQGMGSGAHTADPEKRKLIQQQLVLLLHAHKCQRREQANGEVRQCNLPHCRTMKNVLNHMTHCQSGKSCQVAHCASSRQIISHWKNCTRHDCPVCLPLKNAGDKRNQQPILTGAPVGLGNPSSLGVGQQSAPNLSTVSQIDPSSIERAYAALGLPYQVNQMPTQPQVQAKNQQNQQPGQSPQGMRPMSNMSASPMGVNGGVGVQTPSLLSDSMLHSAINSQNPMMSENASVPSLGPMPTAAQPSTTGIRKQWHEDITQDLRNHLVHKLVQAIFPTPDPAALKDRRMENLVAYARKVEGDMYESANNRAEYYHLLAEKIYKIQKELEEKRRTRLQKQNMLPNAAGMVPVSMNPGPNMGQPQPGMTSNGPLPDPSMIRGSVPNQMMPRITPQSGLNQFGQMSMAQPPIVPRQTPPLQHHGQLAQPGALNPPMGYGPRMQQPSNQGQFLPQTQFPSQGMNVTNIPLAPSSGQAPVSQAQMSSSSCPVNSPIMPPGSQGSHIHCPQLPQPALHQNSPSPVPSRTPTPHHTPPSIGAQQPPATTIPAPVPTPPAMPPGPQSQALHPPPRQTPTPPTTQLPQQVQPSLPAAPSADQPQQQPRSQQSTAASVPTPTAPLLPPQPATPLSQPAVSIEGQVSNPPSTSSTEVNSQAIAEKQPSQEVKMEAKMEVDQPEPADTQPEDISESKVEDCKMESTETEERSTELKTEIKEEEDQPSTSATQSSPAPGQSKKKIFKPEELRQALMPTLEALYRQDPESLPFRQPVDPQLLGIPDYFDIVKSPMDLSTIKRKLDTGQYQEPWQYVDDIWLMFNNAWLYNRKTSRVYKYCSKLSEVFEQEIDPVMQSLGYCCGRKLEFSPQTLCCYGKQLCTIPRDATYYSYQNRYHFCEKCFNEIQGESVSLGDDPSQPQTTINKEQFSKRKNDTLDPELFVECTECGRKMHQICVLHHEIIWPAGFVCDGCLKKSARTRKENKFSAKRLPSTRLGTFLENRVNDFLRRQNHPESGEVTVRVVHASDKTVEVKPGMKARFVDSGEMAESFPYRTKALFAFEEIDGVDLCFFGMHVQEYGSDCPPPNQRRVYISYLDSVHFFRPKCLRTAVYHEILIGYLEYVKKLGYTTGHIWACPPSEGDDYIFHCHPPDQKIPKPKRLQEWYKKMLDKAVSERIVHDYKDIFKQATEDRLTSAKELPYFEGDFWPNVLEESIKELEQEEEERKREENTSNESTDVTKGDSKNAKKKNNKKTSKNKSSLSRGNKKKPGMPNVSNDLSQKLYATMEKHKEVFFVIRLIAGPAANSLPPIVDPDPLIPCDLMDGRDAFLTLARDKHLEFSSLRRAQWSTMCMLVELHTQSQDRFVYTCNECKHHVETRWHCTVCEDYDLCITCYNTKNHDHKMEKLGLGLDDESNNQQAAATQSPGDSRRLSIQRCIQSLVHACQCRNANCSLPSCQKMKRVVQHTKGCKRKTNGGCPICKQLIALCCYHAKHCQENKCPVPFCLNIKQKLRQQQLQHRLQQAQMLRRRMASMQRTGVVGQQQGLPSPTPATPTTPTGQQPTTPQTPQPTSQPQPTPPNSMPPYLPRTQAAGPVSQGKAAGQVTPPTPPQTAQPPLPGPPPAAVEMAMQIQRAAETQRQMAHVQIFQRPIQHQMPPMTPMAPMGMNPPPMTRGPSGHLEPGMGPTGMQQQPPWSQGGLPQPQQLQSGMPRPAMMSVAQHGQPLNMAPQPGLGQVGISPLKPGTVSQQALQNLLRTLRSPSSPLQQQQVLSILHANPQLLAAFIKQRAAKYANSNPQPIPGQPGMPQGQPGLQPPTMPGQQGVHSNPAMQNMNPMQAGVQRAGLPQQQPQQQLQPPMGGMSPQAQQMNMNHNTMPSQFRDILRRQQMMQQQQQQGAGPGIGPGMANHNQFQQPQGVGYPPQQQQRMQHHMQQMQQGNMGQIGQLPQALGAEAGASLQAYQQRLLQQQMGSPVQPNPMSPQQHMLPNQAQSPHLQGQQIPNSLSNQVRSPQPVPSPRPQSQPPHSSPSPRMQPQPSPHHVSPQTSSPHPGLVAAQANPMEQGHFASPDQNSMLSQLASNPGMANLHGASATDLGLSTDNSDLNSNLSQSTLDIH

As usually defined, the Kd is the constant that tells how readily two partners part at equilibrium. High values mean a looser complex, low ones a tighter complex. SMDESGLPQLTSYDCEVNAPIQGSRNLLQGEELLRALDQVN (domain or fragment, UniProt Q16665 786-826, looked up) [HIF1α C-terminal transactivation domain, HIF1α_(786–826)]: the Kd was determined as 14.5 nM.

Source of the values: publication PMC11191652 (Biomaterials science, 2024).
